Where no end group is shown, it is not given here.
Assays:
RSK2 (44–367) = RSK2 (44–367) (human, UniProt P51812 44-367); test: ITC
RSK2 (46–346) = RSK2 (46–346) (human, UniProt P51812 46-346); test: crystal structure

Kd (RSK2 (44–367))	binding result (RSK2 (44–367))	binding result (RSK2 (46–346))	Binder
~9 µM			SPRED2 (104–181) (domain or fragment) SPADARAFDRGVRKAIEDLIEGSTTSSSTIHNEAELGDDDVFTTATDSSSNSSQKREQPTRTISSPTSCEHRRIYTLG
	binds		SPRED2 (11–181) (domain or fragment) SYIVRVKAVVMTRDDSSGGWFPQEGGGISRVGVCKVMHPEGNGRSGFLIHGERQKDKLVVLECYVRKDLVYTKANPTFHHWKVDNRKFGLTFQSPADARAFDRGVRKAIEDLIEGSTTSSSTIHNEAELGDDDVFTTATDSSSNSSQKREQPTRTISSPTSCEHRRIYTLG
36 µM			Ac-GDDDVFTTATDS [SPRED2 (140–151) peptide]
	binds	binds	Ac-STIHNEAELGDDDVFTTATDSSSNSSQKRE [SPRED2 (131–160) peptide]
20 µM			Ac-ELGDDDVFTTATDSSS [SPRED2 (138–153) peptide]
